Laboratory results taken from PMC9582194, “The effect of helix-inducing constraints and downsizing upon a transcription block survival-derived functional cJun antagonist” (Cell Reports. Physical Science, 2022).
Positions of bridges follow the written chain, without caps; N, C: chain ends.

B1: HW15 (peptide)
peptide: Ac-EAEELVVEEDVLEEEIEQLEEKNKALKDEIEDLY-NH2
modifications: lactam 24-28
SMILES: CC[C@H](C)[C@H](NC(=O)[C@H](CCC(=O)O)NC(=O)[C@@H]1CC(=O)NCCCC[C@H](NC(=O)[C@H](CC(N)=O)NC(=O)[C@H](CCCCN)NC(=O)[C@H](CCC(=O)O)NC(=O)[C@H](CCC(=O)O)NC(=O)[C@H](CC(C)C)NC(=O)[C@H](CCC(N)=O)NC(=O)[C@H](CCC(=O)O)NC(=O)[C@@H](NC(=O)[C@H](CCC(=O)O)NC(=O)[C@H](CCC(=O)O)NC(=O)[C@H](CCC(=O)O)NC(=O)[C@H](CC(C)C)NC(=O)[C@@H](NC(=O)[C@H](CC(=O)O)NC(=O)[C@H](CCC(=O)O)NC(=O)[C@H](CCC(=O)O)NC(=O)[C@@H](NC(=O)[C@@H](NC(=O)[C@H](CC(C)C)NC(=O)[C@H](CCC(=O)O)NC(=O)[C@H](CCC(=O)O)NC(=O)[C@H](C)NC(=O)[C@H](CCC(=O)O)NC(C)=O)C(C)C)C(C)C)C(C)C)[C@@H](C)CC)C(=O)N[C@@H](C)C(=O)N[C@@H](CC(C)C)C(=O)N[C@@H](CCCCN)C(=O)N1)C(=O)N[C@@H](CCC(=O)O)C(=O)N[C@@H](CC(=O)O)C(=O)N[C@@H](CC(C)C)C(=O)N[C@@H](Cc1ccc(O)cc1)C(N)=O
notes: cyclized form of the pair HW14/HW15; NΔ20 CΔ10; source: synthetic peptide (Fmoc SPPS, on-resin lactamization, RP-HPLC purified)
B2: HW10 (peptide)
peptide: Ac-LVVEEDVLEEEIEQLEEKNKALKDEIEDLQKQLEKLY-NH2
notes: linear form of the pair HW10/HW11; NΔ24 CΔ3 with point mutations for the bridging K and D; source: synthetic peptide (Fmoc SPPS, split batch, RP-HPLC purified)
B3: HW11 (peptide)
peptide: Ac-LVVEEDVLEEEIEQLEEKNKALKDEIEDLQKQLEKLY-NH2
modifications: lactam 20-24
SMILES: CC[C@H](C)[C@H](NC(=O)[C@H](CCC(=O)O)NC(=O)[C@@H]1CC(=O)NCCCC[C@H](NC(=O)[C@H](CC(N)=O)NC(=O)[C@H](CCCCN)NC(=O)[C@H](CCC(=O)O)NC(=O)[C@H](CCC(=O)O)NC(=O)[C@H](CC(C)C)NC(=O)[C@H](CCC(N)=O)NC(=O)[C@H](CCC(=O)O)NC(=O)[C@@H](NC(=O)[C@H](CCC(=O)O)NC(=O)[C@H](CCC(=O)O)NC(=O)[C@H](CCC(=O)O)NC(=O)[C@H](CC(C)C)NC(=O)[C@@H](NC(=O)[C@H](CC(=O)O)NC(=O)[C@H](CCC(=O)O)NC(=O)[C@H](CCC(=O)O)NC(=O)[C@@H](NC(=O)[C@@H](NC(=O)[C@H](CC(C)C)NC(C)=O)C(C)C)C(C)C)C(C)C)[C@@H](C)CC)C(=O)N[C@@H](C)C(=O)N[C@@H](CC(C)C)C(=O)N[C@@H](CCCCN)C(=O)N1)C(=O)N[C@@H](CCC(=O)O)C(=O)N[C@@H](CC(=O)O)C(=O)N[C@@H](CC(C)C)C(=O)N[C@@H](CCC(N)=O)C(=O)N[C@@H](CCCCN)C(=O)N[C@@H](CCC(N)=O)C(=O)N[C@@H](CC(C)C)C(=O)N[C@@H](CCC(=O)O)C(=O)N[C@@H](CCCCN)C(=O)N[C@@H](CC(C)C)C(=O)N[C@@H](Cc1ccc(O)cc1)C(N)=O
notes: cyclized form of the pair HW10/HW11; NΔ24 CΔ3; source: synthetic peptide (Fmoc SPPS, on-resin lactamization, RP-HPLC purified)
B4: HW13 (peptide)
peptide: Ac-LVVEEDVLEEEIEQLEERNYALRKEIEDLQKQLEDL-NH2
modifications: lactam 31-35
notes: cyclized form of the pair HW12/HW13; NΔ24 CΔ3; source: synthetic peptide (Fmoc SPPS, on-resin lactamization, RP-HPLC purified)
B5: HW18 (peptide)
peptide: Ac-KEAEDLVVEEDVLEEEIEQLEERNYALRKEIKDLQDQ-NH2
notes: linear form of the pair HW18/HW19; NΔ19 CΔ7; source: synthetic peptide (Fmoc SPPS, RP-HPLC purified)
B6: HW12 (peptide)
peptide: Ac-LVVEEDVLEEEIEQLEERNYALRKEIEDLQKQLEDL-NH2
notes: linear form of the pair HW12/HW13; NΔ24 CΔ3; source: synthetic peptide (Fmoc SPPS, split batch, RP-HPLC purified)
B7: HW19 (peptide)
peptide: Ac-KEAEDLVVEEDVLEEEIEQLEERNYALRKEIKDLQDQ-NH2
modifications: lactam 1-5
notes: cyclized form of the pair HW18/HW19; NΔ19 CΔ7; source: synthetic peptide (Fmoc SPPS, on-resin lactamization, RP-HPLC purified)
B8: HW16 (peptide)
peptide: Ac-EAEELVVEEDVLEEEIEQLEERNYALRKEIEDLQ-NH2
notes: linear form of the pair HW16/HW17; NΔ20 CΔ9; source: synthetic peptide (Fmoc SPPS, RP-HPLC purified)
B9: HW17 (peptide)
peptide: Ac-EAEELVVEEDVLEEEIEQLEERNYALRKEIEDLQ-NH2
modifications: lactam 28-32
notes: cyclized form of the pair HW16/HW17; NΔ20 CΔ9; source: synthetic peptide (Fmoc SPPS, on-resin lactamization, RP-HPLC purified)
B10: HW20 (peptide)
peptide: Ac-EAKELVDEEDVLEEEIEQLEERNYALRKEIEDLQKQ-NH2
notes: linear form of the pair HW20/HW21; NΔ20 CΔ7; source: synthetic peptide (Fmoc SPPS, RP-HPLC purified)
B11: HW24 (peptide)
peptide: Ac-EAEELVVEEDVLEEEIKQLEDRNYALRKEIEDLQKQ-NH2
notes: linear form of the pair HW24/HW25; NΔ20 CΔ7; source: synthetic peptide (Fmoc SPPS, RP-HPLC purified)
B12: HW21 (peptide)
peptide: Ac-EAKELVDEEDVLEEEIEQLEERNYALRKEIEDLQKQ-NH2
modifications: lactam 3-7
SMILES: CC[C@H](C)[C@H](NC(=O)[C@H](CCC(=O)O)NC(=O)[C@H](CCCCN)NC(=O)[C@H](CCCNC(=N)N)NC(=O)[C@H](CC(C)C)NC(=O)[C@H](C)NC(=O)[C@H](Cc1ccc(O)cc1)NC(=O)[C@H](CC(N)=O)NC(=O)[C@H](CCCNC(=N)N)NC(=O)[C@H](CCC(=O)O)NC(=O)[C@H](CCC(=O)O)NC(=O)[C@H](CC(C)C)NC(=O)[C@H](CCC(N)=O)NC(=O)[C@H](CCC(=O)O)NC(=O)[C@@H](NC(=O)[C@H](CCC(=O)O)NC(=O)[C@H](CCC(=O)O)NC(=O)[C@H](CCC(=O)O)NC(=O)[C@H](CC(C)C)NC(=O)[C@@H](NC(=O)[C@H](CC(=O)O)NC(=O)[C@H](CCC(=O)O)NC(=O)[C@H](CCC(=O)O)NC(=O)[C@@H]1CC(=O)NCCCC[C@H](NC(=O)[C@H](C)NC(=O)[C@H](CCC(=O)O)NC(C)=O)C(=O)N[C@@H](CCC(=O)O)C(=O)N[C@@H](CC(C)C)C(=O)N[C@@H](C(C)C)C(=O)N1)C(C)C)[C@@H](C)CC)C(=O)N[C@@H](CCC(=O)O)C(=O)N[C@@H](CC(=O)O)C(=O)N[C@@H](CC(C)C)C(=O)N[C@@H](CCC(N)=O)C(=O)N[C@@H](CCCCN)C(=O)N[C@@H](CCC(N)=O)C(N)=O
notes: cyclized form of the pair HW20/HW21; NΔ20 CΔ7; source: synthetic peptide (Fmoc SPPS, on-resin lactamization, RP-HPLC purified)
B13: HW22 (peptide)
peptide: Ac-EAEELVVEEKVLEDEIEQLEERNYALRKEIEDLQKQ-NH2
notes: linear form of the pair HW22/HW23; NΔ20 CΔ7; source: synthetic peptide (Fmoc SPPS, RP-HPLC purified)
B14: HW25 (peptide)
peptide: Ac-EAEELVVEEDVLEEEIKQLEDRNYALRKEIEDLQKQ-NH2
modifications: lactam 17-21
SMILES: CC[C@H](C)[C@H](NC(=O)[C@H](CCC(=O)O)NC(=O)[C@H](CCCCN)NC(=O)[C@H](CCCNC(=N)N)NC(=O)[C@H](CC(C)C)NC(=O)[C@H](C)NC(=O)[C@H](Cc1ccc(O)cc1)NC(=O)[C@H](CC(N)=O)NC(=O)[C@H](CCCNC(=N)N)NC(=O)[C@@H]1CC(=O)NCCCC[C@H](NC(=O)[C@@H](NC(=O)[C@H](CCC(=O)O)NC(=O)[C@H](CCC(=O)O)NC(=O)[C@H](CCC(=O)O)NC(=O)[C@H](CC(C)C)NC(=O)[C@@H](NC(=O)[C@H](CC(=O)O)NC(=O)[C@H](CCC(=O)O)NC(=O)[C@H](CCC(=O)O)NC(=O)[C@@H](NC(=O)[C@@H](NC(=O)[C@H](CC(C)C)NC(=O)[C@H](CCC(=O)O)NC(=O)[C@H](CCC(=O)O)NC(=O)[C@H](C)NC(=O)[C@H](CCC(=O)O)NC(C)=O)C(C)C)C(C)C)C(C)C)[C@@H](C)CC)C(=O)N[C@@H](CCC(N)=O)C(=O)N[C@@H](CC(C)C)C(=O)N[C@@H](CCC(=O)O)C(=O)N1)C(=O)N[C@@H](CCC(=O)O)C(=O)N[C@@H](CC(=O)O)C(=O)N[C@@H](CC(C)C)C(=O)N[C@@H](CCC(N)=O)C(=O)N[C@@H](CCCCN)C(=O)N[C@@H](CCC(N)=O)C(N)=O
notes: cyclized form of the pair HW24/HW25; NΔ20 CΔ7; source: synthetic peptide (Fmoc SPPS, on-resin lactamization, RP-HPLC purified)
B15: HW28 (peptide)
peptide: Ac-EAEELVVEEDVLEEEIEQLEERNYALRKEIKDLQDQ-NH2
notes: linear form of the pair HW28/HW29; NΔ20 CΔ7; source: synthetic peptide (Fmoc SPPS, RP-HPLC purified)
B16: HW26 (peptide)
peptide: Ac-EAEELVVEEDVLEEEIEQLEEKNKALKDEIEDLQKQY-NH2
notes: linear form of the pair HW26/HW27; NΔ20 CΔ7; source: synthetic peptide (Fmoc SPPS, RP-HPLC purified)
B17: HW2 (peptide)
peptide: Ac-LARENEELEKEAEELVVEEDVLEEEIEQLEERNYALRKEIEDLQKQLEKL-NH2
notes: truncation NΔ10 CΔ3 of HW1; source: synthetic peptide (Fmoc SPPS, RP-HPLC purified)

Assays:
[1] = target: T1, cJun (60 amino acid construct encompassing the entire bZIP domain) (UniProt P05412 252-315); test: cell-based or functional assay
T1 sequence (P05412 252-315): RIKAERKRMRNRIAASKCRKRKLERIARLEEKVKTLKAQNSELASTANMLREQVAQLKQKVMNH

[2] = target: T1, cJun (60 amino acid construct …); test: CD thermal denaturation; peptide (5 μM) with cJun (5 μM); ellipticity at 222 nm, 1°C to 90°C; 20 mM potassium phosphate, 150 mM potassium fluoride, 2 mM TCEP, pH 7.4; two-state fit gives the Tm of the peptide-cJun heterodimer; duplicate experiments; conditions: both partners purified

Row | Binder | IC50 CD: peptide added to pre-incubated cJun (20 μM) and TRE DNA (5 μM); blocks cJun/TRE DNA binding [1] [µM] | Tm of the peptide-cJun heterodimer [2] [°C]
1 | B1 | 118 | 52.5
2 | B2 | 83.9 | 64.3
3 | B3 | 73.5 | 67.2
4 | B4 | 69 | 68.3
5 | B5 | 115 | 56.5
6 | B6 | 94.6 | 62.1
7 | B7 | 92.5 | 58.5
8 | B8 | 725 | 53.8
9 | B9 | 140 | 57.2
10 | B10 | 100 | 57.5
11 | B11 | 98.9 | 55.5
12 | B12 | 81.1 | 59.4
13 | B13 | 114 | 54.9
14 | B14 | 94.4 | 60.9
15 | B15 | 101 | 55.6
16 | B16 | 121 | 56.2
17 | B17 | 16.6 | 68.5
